The source of these data is PMC12053622 (2025).

Common to all, as to experiment: BLI
The target of assay [1] is T1, hMCT1/hBSG (Homo sapiens).
T1 chain 1: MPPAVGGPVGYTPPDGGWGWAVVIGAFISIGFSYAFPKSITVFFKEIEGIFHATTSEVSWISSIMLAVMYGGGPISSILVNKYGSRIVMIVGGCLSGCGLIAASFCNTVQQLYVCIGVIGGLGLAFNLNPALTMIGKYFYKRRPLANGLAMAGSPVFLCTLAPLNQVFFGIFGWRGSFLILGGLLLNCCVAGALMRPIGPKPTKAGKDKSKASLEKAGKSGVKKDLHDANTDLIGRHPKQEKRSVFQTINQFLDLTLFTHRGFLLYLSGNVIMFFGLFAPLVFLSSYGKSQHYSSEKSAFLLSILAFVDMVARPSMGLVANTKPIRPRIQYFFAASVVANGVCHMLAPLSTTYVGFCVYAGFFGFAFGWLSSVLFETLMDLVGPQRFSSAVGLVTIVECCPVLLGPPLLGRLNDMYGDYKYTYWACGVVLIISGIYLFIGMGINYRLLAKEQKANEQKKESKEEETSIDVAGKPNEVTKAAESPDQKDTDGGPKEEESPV
T1 chain 2: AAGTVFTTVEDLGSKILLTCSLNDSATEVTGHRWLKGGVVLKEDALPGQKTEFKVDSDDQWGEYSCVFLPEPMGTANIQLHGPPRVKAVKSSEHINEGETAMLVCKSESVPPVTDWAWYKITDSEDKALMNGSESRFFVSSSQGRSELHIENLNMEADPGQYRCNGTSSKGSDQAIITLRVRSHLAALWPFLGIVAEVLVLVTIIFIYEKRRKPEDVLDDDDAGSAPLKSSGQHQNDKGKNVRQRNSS

The target of assay [2] is T1, hMCT1/hBSG.
The target in assay [3] is T2, WT mMCT1/mBSG complex (mouse, UniProt P53986 1-493).
T2 chain 1: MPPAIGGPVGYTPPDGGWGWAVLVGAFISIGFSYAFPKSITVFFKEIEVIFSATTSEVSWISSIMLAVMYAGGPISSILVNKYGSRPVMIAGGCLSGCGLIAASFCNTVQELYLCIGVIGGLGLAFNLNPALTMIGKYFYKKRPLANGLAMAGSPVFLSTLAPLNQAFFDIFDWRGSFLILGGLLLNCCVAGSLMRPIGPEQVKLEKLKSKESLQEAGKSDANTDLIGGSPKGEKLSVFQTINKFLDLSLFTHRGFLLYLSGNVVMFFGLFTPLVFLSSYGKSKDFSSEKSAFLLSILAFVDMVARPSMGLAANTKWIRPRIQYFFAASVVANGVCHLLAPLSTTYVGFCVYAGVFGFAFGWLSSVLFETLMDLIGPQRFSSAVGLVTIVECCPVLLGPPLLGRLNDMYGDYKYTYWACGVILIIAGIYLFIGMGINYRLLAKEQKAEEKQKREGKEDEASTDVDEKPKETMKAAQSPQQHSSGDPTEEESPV
T2 chain 2: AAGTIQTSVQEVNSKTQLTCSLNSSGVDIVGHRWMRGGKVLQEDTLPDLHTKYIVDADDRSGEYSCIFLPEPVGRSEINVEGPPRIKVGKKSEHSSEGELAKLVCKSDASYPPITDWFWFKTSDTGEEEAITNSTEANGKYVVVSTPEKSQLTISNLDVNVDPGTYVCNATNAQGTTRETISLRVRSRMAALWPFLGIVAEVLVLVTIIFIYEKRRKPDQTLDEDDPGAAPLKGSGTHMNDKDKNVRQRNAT

B1: 6E7F1 monoclonal antibody (antibody, V domains shown)
VH: QVQLQQPGAELVKPGASVNLSCKASGYTFTNYWIHWVKQRPGQGLEWIGMIHPNSGTINYNEKFKTKATLTVDKSSSTAYMQLSSLTSEDSAVYYCARVGTGSLDYWGQGTSVTVSS
VL: DIVMTQSPATLSVTPGDRVSLSCRASQSISDYLHWYQQKSHESPRLLIKYVSQSISGIPSRFSGSGSGSYFTLSIDSVEPEDVGVYYCQNGHRFPYTFGGGTKLEIK
modifications: Full-length hMCT1 with hBSG isoform 2 (limits not given; signal peptide 1-21 removed by convention); Ig-domain disulfides; N-glycosylated BSG if expressed in mammalian cells
Consider B1, for which the Kd in assay [1] stood at 4.41 nM. The koff in assay [2] stood at 0.000183 s⁻¹.

B2: 6E7F1 monoclonal antibody (antibody, V domains shown)
VH: B1 VH
VL: B1 VL
The molecule B2 yielded a Kd in assay [3] of 0.421 nM.
